The data set concerns the molecule itself. The data set is described as follows: native MS.

B1: hepatitis B virus (HBV) capsid protein Cp149 (truncated form containing only the assembly domain), dimer (domain or fragment)
chain: MDIDPYKEFGATVELLSFLPSDFFPSVRDLLDTAAALYRDALESPEHCSPHHTALRQAILCWGDLMTLATWVGTNLEDPASRDLVVSYVNTNVGLKFRQLLWFHISCLTFGRETVLEYLVSFGVWIRTPPAYRPPNAPILSTLPETTVV
Usually stoichiometry N stands for the number of molecules, sites or subunits per partner or assembly. Take B1: the “stoichiometry N” value was roughly 90 dimers.

The record behind these values is paper PMC6347577 (Journal of the American Chemical Society, 2018).
